Test results published in patent US20220169720.

Tests used:
[1] = test system: Rubicon mutant's 117-189 amino acids (phosphor-null mutants, single serine/threonine substituted with alanine)
[2] = test system: Rubicon (RUN domain protein as Beclin-1 interacting and cysteine-rich containing), wild-type
Rubicon (RUN domain protein as Beclin-1 interacting and cysteine-rich containing), wild-type, sequence (chain, as listed by the source): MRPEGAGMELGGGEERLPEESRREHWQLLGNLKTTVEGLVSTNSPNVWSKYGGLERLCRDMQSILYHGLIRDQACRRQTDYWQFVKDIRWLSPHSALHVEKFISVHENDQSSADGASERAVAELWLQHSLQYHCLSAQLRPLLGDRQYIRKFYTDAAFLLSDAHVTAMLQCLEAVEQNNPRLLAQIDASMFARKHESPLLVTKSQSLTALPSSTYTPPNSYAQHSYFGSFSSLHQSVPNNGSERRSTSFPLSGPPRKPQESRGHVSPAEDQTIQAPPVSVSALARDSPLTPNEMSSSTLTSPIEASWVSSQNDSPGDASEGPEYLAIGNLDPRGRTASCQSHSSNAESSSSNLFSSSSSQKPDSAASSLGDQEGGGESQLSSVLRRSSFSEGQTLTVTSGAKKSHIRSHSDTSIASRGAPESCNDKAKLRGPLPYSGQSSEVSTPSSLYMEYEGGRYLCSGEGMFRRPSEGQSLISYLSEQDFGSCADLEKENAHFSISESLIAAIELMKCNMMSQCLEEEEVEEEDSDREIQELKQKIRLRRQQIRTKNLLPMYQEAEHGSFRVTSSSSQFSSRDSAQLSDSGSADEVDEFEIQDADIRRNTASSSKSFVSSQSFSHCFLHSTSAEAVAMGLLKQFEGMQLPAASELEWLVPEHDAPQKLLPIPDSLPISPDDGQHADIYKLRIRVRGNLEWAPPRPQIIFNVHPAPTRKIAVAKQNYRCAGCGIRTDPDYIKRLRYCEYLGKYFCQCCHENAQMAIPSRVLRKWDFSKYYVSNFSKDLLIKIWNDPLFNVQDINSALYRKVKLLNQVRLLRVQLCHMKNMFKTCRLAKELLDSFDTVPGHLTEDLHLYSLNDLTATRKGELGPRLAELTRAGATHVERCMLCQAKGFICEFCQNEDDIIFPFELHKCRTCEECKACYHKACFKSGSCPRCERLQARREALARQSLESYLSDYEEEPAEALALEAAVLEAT

Q: Which “amount of generated ADP as a by-product of LRRK2 kinase activity” value [1] does the source give for “Leucine-rich repeat kinase 2 (LRRK2), wild-type” here?
A: The value was “Rubicon mutant's 117-189 amino acids significantly decreased LRRK2 kinase activity”.

Q: What about the “extent of Rubicon phosphorylation by LRRK2 kinase (kinase assay with wild-type or phosphor-null mutant Rubicon as substrate)” value [2] of the same substance?
A: The value was “determined T166 and S189 as the consensus LRRK2-specific phosphosites”.

Q: And the “pT166-Rubicon by ELISA in human neurons transiently over-expressing wild-type (WT) LRRK2” value [2]?
A: The value was 12% and 26% increase in pT166-Rubicon respectively compared to control.

Q: And the “pT166-Rubicon by ELISA in human neurons with endogenous LRRK2 knocked down” value [2]?
A: Its value is 32.4% decrease in pT166-Rubicon compared to control.

Q: mutant LRRK2-G2019S was tested. Which “pT166-Rubicon by ELISA in human neurons transiently over-expressing mutant LRRK2-G2019S” value [2] did it give?
A: Its value is 12% and 26% increase in pT166-Rubicon respectively compared to control.
